Paper PMC8749428

Key:
[1] = target: PltB-Strep; assay: SEC
[2] = target: PltC (untagged, His tag removed); assay: crystal structure
[3] = target: PltA-CdtB-His6 (Salmonella enterica serovar Typhi) (UniProt Q8Z6A7); assay: pull-down
[4] = target: PltC-His6; assay: SEC

PltB-Strep (natural protein)
stoichiometry N [1]: 5

PltC (untagged, His tag removed) (natural protein)
stoichiometry N [2]: 5
fold copurified relative to PltB [3]: 2 fold

PltC-His6 (natural protein)
stoichiometry N [4]: 5
